Results taken from patent publication US20190142971A1, “FORMULATION AND DELIVERY OF MODIFIED NUCLEOSIDE, NUCLEOTIDE, AND NUCLEIC ACID COMPOSITIONS” (ModernaTX, Inc., priority 2013, published 2019).

B1: G-CSF: modified mRNA encoding human G-CSF, SEQ ID NO: 4, Cap1, fully modified with 5-methylcytosine and pseudouridine; LNP-formulated in Examples 16-22 (nucleic acid)
chain: GGGAAAUAAGAGAGAAAAGAAGAGUAAGAAGAAAUAUAAGAGCCACCAUGGCCGGUCCCGCGACCCAAAGCCCCAUGAAACUUAUGGCCCUGCAGUUGCUGCUUUGGCACUCGGCCCUCUGGACAGUCCAAGAAGCGACUCCUCUCGGACCUGCCUCAUCGUUGCCGCAGUCAUUCCUUUUGAAGUGUCUGGAGCAGGUGCGAAAGAUUCAGGGCGAUGGAGCCGCACUCCAAGAGAAGCUCUGCGCGACAUACAAACUUUGCCAUCCCGAGGAGCUCGUACUGCUCGGGCACAGCUUGGGGAUUCCCUGGGCUCCUCUCUCGUCCUGUCCGUCGCAGGCUUUGCAGUUGGCAGGGUGCCUUUCCCAGCUCCACUCCGGUUUGUUCUUGUAUCAGGGACUGCUGCAAGCCCUUGAGGGAAUCUCGCCAGAAUUGGGCCCGACGCUGGACACGUUGCAGCUCGACGUGGCGGAUUUCGCAACAACCAUCUGGCAGCAGAUGGAGGAACUGGGGAUGGCACCCGCGCUGCAGCCCACGCAGGGGGCAAUGCCGGCCUUUGCGUCCGCGUUUCAGCGCAGGGCGGGUGGAGUCCUCGUAGCGAGCCACCUUCAAUCAUUUUUGGAAGUCUCGUACCGGGUGCUGAGACAUCUUGCGCAGCCGUGAAGCGCUGCCUUCUGCGGGGCUUGCCUUCUGGCCAUGCCCUUCUUCUCUCCCUUGCACCUGUACCUCUUGGUCUUUGAAUAAAGCCUGAGUAGGAAG
modifications: Cap1, 5-methylcytosine, pseudouridine
B2: EPO: modified mRNA encoding human erythropoietin, SEQ ID NO: 7, Cap1, fully modified with 5-methylcytosine and pseudouridine; LNP NPA-060-1 in Examples 17-22 (nucleic acid)
chain: GGGAAAUAAGAGAGAAAAGAAGAGUAAGAAGAAAUAUAAGAGCCACCAUGGGAGUGCACGAGUGUCCCGCGUGGUUGUGGUUGCUGCUGUCGCUCUUGAGCCUCCCACUGGGACUGCCUGUGCUGGGGGCACCACCCAGAUUGAUCUGCGACUCACGGGUACUUGAGAGGUACCUUCUUGAAGCCAAAGAAGCCGAAAACAUCACAACCGGAUGCGCCGAGCACUGCUCCCUCAAUGAGAACAUUACUGUACCGGAUACAAAGGUCAAUUUCUAUGCAUGGAAGAGAAUGGAAGUAGGACAGCAGGCCGUCGAAGUGUGGCAGGGGCUCGCGCUUUUGUCGGAGGCGGUGUUGCGGGGUCAGGCCCUCCUCGUCAACUCAUCACAGCCGUGGGAGCCCCUCCAACUUCAUGUCGAUAAAGCGGUGUCGGGGCUCCGCAGCUUGACGACGUUGCUUCGGGCUCUGGGCGCACAAAAGGAGGCUAUUUCGCCGCCUGACGCGGCCUCCGCGGCACCCCUCCGAACGAUCACCGCGGACACGUUUAGGAAGCUUUUUAGAGUGUACAGCAAUUUCCUCCGCGGAAAGCUGAAAUUGUAUACUGGUGAAGCGUGUAGGACAGGGGAUCGCUGAUAAGCUGCCUUCUGCGGGGCUUGCCUUCUGGCCAUGCCCUUCUUCUCUCCCUUGCACCUGUACCUCUUGGUCUUUGAAUAAAGCCUGAGUAGGAAG
modifications: Cap1, 5-methylcytosine, pseudouridine

How the values were obtained:
Sprague Dawley rats = assay: Example 60: G-CSF/Factor IX mRNA IM in rats, serum G-CSF ELISA (Table 94); format: in vivo; details: I.M., 400 ug in 100 ul, 5% sucrose, 8 hours after injection
Procedure: Protein production of modified mRNA was evaluated by delivering modified G-CSF mRNA or modified Factor IX mRNA to female Sprague Dawley rats (n=6). […] Blood was collected 8 hours after injection and the G-CSF protein level in serum was measured by ELISA.

C57BL/6 [1] = assay: Example 116: mouse EPO mRNA in mannitol multi-dose, serum EPO (Table 186); format: in vivo, mice; details: mouse EPO mRNA in 5% isotonic Mannitol, IM 2.5 mg/kg per dose
Procedure: Serum was collected from the mice at 24 hours post the second, fourth, sixth and eighth doses.

C57BL/6 [2] = assay: Example 115: human EPO mRNA electroporation multi-dose, serum EPO (Table 185); format: in vivo, mice; details: human EPO mRNA in PBS, IM 0.2 mg/kg per dose with EP
Procedure: (§1) Serum was collected from the mice at 24 hours post the first, second, third and fourth doses.

C57BL/6 [3] = assay: Example 114: mouse EPO mRNA electroporation multi-dose, serum EPO (Tables 183, 184); format: in vivo, mice; details: mouse EPO mRNA in PBS, IM 0.2 mg/kg per dose with EP
Procedure: as §1

[4] = serum 24 hours post fourth dose
[5] = serum 24 hours post second dose

Molecule | G-CSF protein in rat serum (Sprague Dawley rats) | Eighth Dose EPO (C57BL/6 [1]; serum 24 hours post eighth dose) | Fourth Dose EPO (C57BL/6 [1]; [4]) | Second Dose EPO (C57BL/6 [1]; [5]) | Sixth Dose EPO (C57BL/6 [1]; serum 24 hours post sixth dose) | First Dose EPO (C57BL/6 [2]; serum 24 hours post first dose) | Fourth Dose EPO (C57BL/6 [2]; [4]) | Second Dose EPO (C57BL/6 [2]; [5]) | Third Dose EPO (C57BL/6 [2]; serum 24 hours post third dose) | First Dose EPO (C57BL/6 [3]; serum 24 hours post first dose) | Fourth Dose EPO (C57BL/6 [3]; [4]) | Second Dose EPO (C57BL/6 [3]; [5]) | Third Dose EPO (C57BL/6 [3]; serum 24 hours post third dose)
B1 | 19.37 pg/mL | – | – | – | – | – | – | – | – | – | – | – | –
B2 | – | 239.3 pg/mL | 483.4 pg/mL | 334.7 pg/mL | 328.9 pg/mL | 9.5 pg/mL | 139.9 pg/mL | 27.9 pg/mL | 284.5 pg/mL | 151.9 pg/mL | 258.1 pg/mL | 357.8 pg/mL | 898.5 pg/mL
